The target in test [1] is T1, Recombinant Human TNFα/TNFSF1A (human, UniProt P01375 77-233). The test is described as follows: cell-based or functional assay.
In test [2] the target is T1, Recombinant Human TNFα/TNFSF1A. The test is described as follows: SPR (BIACORE). The method, then: The BIACORE assay (Biacore, Inc, Piscataway, N.J.) determines the affinity of antibodies or DVD-Ig with kinetic measurements of on-rate and off-rate constants. Binding of antibodies or DVD-Ig to a target antigen (for example, a purified recombinant target antigen) was determined by surface plasmon resonance-based measurements with a Biacore® 1000 or 3000 instrument (Biacore® AB, Uppsala, Sweden) using running HBS-EP (10 mM HEPES [pH 7.4], 150 mM NaCl, 3 mM EDTA, and 0.005% surfactant P20) at 25° C. All chemicals were obtained from Biacore® AB (Uppsala, Sweden) or otherwise from a different source as described in the text. For example, approximately 5000 RU of goat anti-mouse IgG, (Fcγ), fragment specific polyclonal antibody (Pierce Biotechnology Inc, Rockford, Ill.) diluted in 10 mM sodium acetate (pH 4.5) is directly immobilized across a CM5 research grade biosensor chip using a standard amine coupling kit according to manufacturer's instructions and procedures at 25 μg/ml. Unreacted moieties on the biosensor surface are blocked with ethanolamine. Modified carboxymethyl dextran surface in flowcell 2 and 4 is used as a reaction surface. Unmodified carboxymethyl dextran without goat anti-mouse IgG in flow cell 1 and 3 is used as the reference surface. For kinetic analysis, rate equations derived from the 1:1 Langmuir binding model are fitted simultaneously to association and dissociation phases of all eight injections (using global fit analysis) with the use of Biaevaluation 4.0.1 software. Purified antibodies or DVD-Ig are diluted in HEPES-buffered saline for capture across goat anti-mouse IgG specific reaction surfaces. Antibodies or DVD-Ig to be captured as a ligand (25 μg/ml) are injected over reaction matrices at a flow rate of 5 μl/min. The association and dissociation rate constants, kₒₙ (M⁻¹ s⁻¹) and koff (s⁻¹) are determined under a continuous flow rate of 25 μl/min. Rate constants are derived by making kinetic binding measurements at different antigen concentrations ranging from 10-200 nM. The equilibrium dissociation constant (M) of the reaction between antibodies or DVD-Igs and the target antigen is then calculated from the kinetic rate constants by the following formula: KD=koff/kₒₙ. Binding is recorded as a function of time and kinetic rate constants are calculated.
(In general: SPR reads the build-up and loss of mass on a sensor chip optically.)

We go through 5 molecules from patent US20120258108A1 (AbbVie / Abbott, published 2012).

T1 sequence (P01375 77-233 limits assumed): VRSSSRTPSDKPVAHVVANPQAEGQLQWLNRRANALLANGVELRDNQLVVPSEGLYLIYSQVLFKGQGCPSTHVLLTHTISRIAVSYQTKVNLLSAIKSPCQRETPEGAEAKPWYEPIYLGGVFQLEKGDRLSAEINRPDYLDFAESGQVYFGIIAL

B1: AB281 (antibody, human IgG1, kappa, V domains shown)
VH: EVTLRESGPALVKPTQTLTLTCTASGFTFDDYAMHWVRQPPGKGLEWVSAITWNSGHIDYADSVEGRFTISRDNSKNQLVLTMTNMDPVDTATYYCAKVSYLSTASSLDYWGQGTTVTVSS
VL: DIVMTQSPDSLAVSLGERATINCRASQGIRNYLAWYQQKPGQAPKLLIYAASTLQSGVPDRFSGSGSGTDFTLTISSLQAEDVAVYYCQRYNRAPYTFGGGTKVEIKR
notes: CDR-grafted parent antibody; also called TNF (AB057)
In general, Kd refers to a measure of binding affinity in units of concentration. A word on the koff: it is a measure of how fast the partners let go of each other. A word on the kon: it is the rate constant with which the complex forms. As for B1, the “TNFα Neutralization Assay EC50 nM (L929 cells)” value in test [1] was found to be 0.104 nM. Further, in test [2], the Kd stood at 0.088 nM, the koff was 0.0001 s⁻¹ and the kon amounted to 1.2e+06 M⁻¹ s⁻¹.

B2: DVD1720 (bispecific antibody)
heavy: not shown
light: EIVMTQSPGTLSLSPGERATLSCRASQGIRNYLAWYQQKPGQAPRLLIYAASTLQSGVPDRFSGSGSGTDFTLTISRLEPEDFAVFYCQRYNRAPYTFGQGTKVEIKRTVAAPDVQMTQSPSSLSASVGDRVTITCTSSQNIVHSNGNTYLEWYQQKPGKSPKLLIYKVSNRFSGVPSRFSGSGSGTDFTLTISSLQPEDVATYYCFQVSHVPYTFGQGTKVEIKRTVAAPSVFIFPPSDEQLKSGTASVVCLLNNFYPREAKVQWKVDNALQSGNSQESVTEQDSKDSTYSLSSTLTLSKADYEKHKVYACEVTHQGLSSPVTKSFNRGEC
With B2, in test [1], the “N-terminal VD TNFα Neutralization Assay EC50 nM (L929 cells)” value came to 0.026 nM.

B3: AB314 (antibody, human IgG1, kappa, V domains shown)
VH: EVQLVESGGGLVQPANSLKLSCAASGFTFDDYAMHWVRQSPKKGLEWVSAITWNSGHIDYADSVEGRFTISRDNAKNTLYLQMDSLRSEDTATYYCAKVSYLSTASSLDYWGQGVLVTVSS
VL: DIRMTQSPASLSASLGETVNIECRASQGIRNYLAWYQQKPGKAPQLLIYAASTLQSGVPSRFSGSGSGTQFSLKINSLQSEDVATYYCQRYNRAPYTFGGGTKLELKR
notes: CDR-grafted parent antibody; also called TNF (AB023)
Regarding B3, the “TNFα Neutralization Assay EC50 nM (L929 cells)” value in test [1] was determined as 0.053 nM. Further, in test [2], the Kd came to 0.064 nM, the koff came out at 7.9e-05 s⁻¹ and the association rate constant (kon) was determined as 1.2e+06 M⁻¹ s⁻¹.

B4: AB284 (antibody, human IgG1, kappa, V domains shown)
VH: EVQLVQSGTEVKKPGESLKISCKASGFTFDDYAMHWVRQMPGKGLEWVSAITWNSGHIDYADSVEGQFTISRDNSFNTLFLQWSSLKASDTAMYYCAKVSYLSTASSLDYWGQGTMVTVSS
VL: EIVMTQSPATLSVSPGERATLSCRASQGIRNYLAWYQQKPGQAPRLLIYAASTLQSDVPARFSGSGSGTEFTLTISSLQSEDFAVYYCQRYNRAPYTFGQGTRLEIKR
notes: CDR-grafted parent antibody; also called TNF (AB058)
As to B4, the “TNFα Neutralization Assay EC50 nM (L929 cells)” value in test [1] was determined as 0.228 nM. In addition, in test [2], the Kd was determined as 0.13 nM, the koff is 0.00015 s⁻¹ and the kon was 1.2e+06 M⁻¹ s⁻¹.

B5: DVD1727 (bispecific antibody, human IgG1, kappa)
heavy: not shown
light: DVQMTQSPSSLSASVGDRVTITCTSSQNIVHSNGNTYLEWYQQKPGKSPKLLIYKVSNRFSGVPSRFSGSGSGTDFTLTISSLQPEDVATYYCFQVSHVPYTFGQGTKVEIKRTVAAPDIRMTQSPASLSASLGETVNIECRASQGIRNYLAWYQQKPGKAPQLLIYAASTLQSGVPSRFSGSGSGTQFSLKINSLQSEDVATYYCQRYNRAPYTFGGGTKLELKRTVAAPSVFIFPPSDEQLKSGTASVVCLLNNFYPREAKVQWKVDNALQSGNSQESVTEQDSKDSTYSLSSTLTLSKADYEKHKVYACEVTHQGLSSPVTKSFNRGEC
notes: DVD-Ig; also called PGE2 (AB017) / TNF (AB023) DVD-Ig
In the case of B5, in test [1], the “C-terminal VD TNFα Neutralization Assay EC50 nM (L929 cells)” value amounted to 1.17 nM. Moreover, in test [2], the Kd was found to be 5.4 nM, the koff amounted to 0.00012 s⁻¹ and the kon is 22000 M⁻¹ s⁻¹.
